The chains are these.
B3: Lis1 (in solution) (natural protein, UniProt P43034 1-410, looked up)
chain: MVLSQRQRDELNRAIADYLRSNGYEEAYSVFKKEAELDVNEELDKKYAGLLEKKWTSVIRLQKKVMELESKLNEAKEEFTSGGPLGQKRDPKEWIPRPPEKYALSGHRSPVTRVIFHPVFSVMVSASEDATIKVWDYETGDFERTLKGHTDSVQDISFDHSGKLLASCSADMTIKLWDFQGFECIRTMHGHDHNVSSVAIMPNGDHIVSASRDKTIKMWEVQTGYCVKTFTGHREWVRMVRPNQDGTLIASCSNDQTVRVWVVATKECKAELREHEHVVECISWAPESSYSSISEATGSETKKSGKPGPFLLSGSRDKTIKMWDVSTGMCLMTLVGHDNWVRGVLFHSGGKFILSCADDKTLRVWDYKNKRCMKTLNAHEHFVTSLDFHKTAPYVVTGSVDQTVKVWECR

The target in test [1] is T1, SNAP-tagged, recombinant full-length human cytoplasmic dynein-1 with all associated accessory chains (human, UniProt Q14204 1-4646; Q13409-3 1-612; O43237 1-492; P63172 1-113; Q9NP97 1-96; P63167 …).
T1 construct: cytoplasmic dynein 1 heavy chain 1 (DHC1), human; dynein intermediate chain 2, isoform 2C (IC2C), human; dynein light intermediate chain 2 (LIC2), human; dynein light chain Tctex1, human; dynein light chain LC8, human; For motility assays the SNAP tag was labelled with TMR or Alexa647; source: Sf9, purified (IgG Sepharose, TEV cleavage, SEC); not shown: His, N-terminal, cleaved; ZZ, N-terminal, …
Description: pull-down; quantitative depletion assay: 0-600 nM Ndel1 construct coupled to Magne HaloTag beads via the HaloTag; 5 nM dynein in solution, 45 min; binding buffer 30 mM Hepes pH 7.4, 36 mM KCl, 1 mM ADP, 1 mg/ml casein, 0.1% NP-40; supernatant on SDS-PAGE, densitometry; one-site fit with Bmax set to 1. Particulars: both partners purified.

The target of test [2] is T1, SNAP-tagged, recombinant full-length …. Description: cell-based or functional assay.
In the test “Lis1 (in solution)” the target is B3. Put plainly: pull-down; quantitative depletion assay: Ndel1 construct on Magne HaloTag beads via the N-terminal HaloTag; 5 nM Lis1 in solution; binding buffer with 150 mM KCl; SDS-PAGE densitometry; quadratic binding equation. Particulars: both partners purified.
The target in test [3] is T1, SNAP-tagged, recombinant full-length …. Description: pull-down; dynein-Lis1 binding curve (Fig. S4G); one-site fit with Bmax set to 1; who was on the beads is not told for this curve. Particulars: both partners purified.
Another test deals with T2, Lis1 (UniProt P43034 1-410).
T2 construct: Lis1; also called ZZ-TEV-Lis1; source: Sf9 cells, purified (IgG Sepharose, TEV cleavage, size-exclusion chromatography); not shown: ZZ, N-terminal, cleaved
T2 sequence (looked up): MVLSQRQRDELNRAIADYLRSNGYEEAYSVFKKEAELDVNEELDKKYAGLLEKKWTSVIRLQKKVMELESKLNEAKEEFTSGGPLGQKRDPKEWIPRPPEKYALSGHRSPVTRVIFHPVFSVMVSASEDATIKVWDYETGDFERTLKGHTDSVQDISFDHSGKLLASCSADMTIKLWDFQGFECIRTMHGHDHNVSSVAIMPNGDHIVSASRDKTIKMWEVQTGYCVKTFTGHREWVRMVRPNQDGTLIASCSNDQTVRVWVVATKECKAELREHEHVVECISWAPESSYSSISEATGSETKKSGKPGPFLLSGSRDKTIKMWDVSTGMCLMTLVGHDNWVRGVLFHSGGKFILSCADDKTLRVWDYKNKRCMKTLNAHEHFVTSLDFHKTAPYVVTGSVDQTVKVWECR
Description: pull-down; depletion of 5 nM Lis1 from solution by Ndel1 coupled to Magne HaloTag beads; binding buffer with 150 mM KCl; SDS-PAGE densitometry of the supernatant; quadratic binding equation. Particulars: both partners purified.

B1: Halo-tagged Ndel1 with the C-terminal coiled coil (256-291) deleted, with C-terminal 6X-His tag (natural protein, UniProt Q9GZM8 1-345, looked up)
chain: MDGEDIPDFSSLKEETAYWKELSLKYKQSFQEARDELVEFQEGSRELEAELEAQLVQAEQRNRDLQADNQRLKYEVEALKEKLEHQYAQSYKQVSVLEDDLSQTRAIKEQLHKYVRELEQANDDLERAKRATIVSLEDFEQRLNQAIERNAFLESELDEKESLLVSVQRLKDEARDLRQELAVRERQQEVTRKSAPSSPTLDCEKMDSAVQASLSLPATPVGKGTENTFPSPKAIPNGFGTSPLTPSARISALNINCGVLNGNGTKFSRSGHTSFFDKGAVNGFDPAPPPPGLGSSRPSSAPGMLPLSV
notes: Ndel1 with residues 256-291 deleted; also called Ndel1^ΔCTCC; FL-Ndel1^ΔCTCC; source: Sf9, purified (IgG Sepharose, TEV cleavage, SEC); not shown: ZZ, N-terminal, cleaved; HaloTag, N-terminal, kept; His6, C-terminal, kept
By Kd is commonly meant the free concentration of one partner at which half of the binding sites on the other are occupied at equilibrium, for simple one-to-one binding. Consider B1, for which the Kd in test [1] came out at 55 nM.

B2: Halo-tagged Ndel1(1-192), N-terminal coiled coil only, with C-terminal 6X-His tag (domain or fragment, UniProt Q9GZM8 1-192, looked up)
chain: MDGEDIPDFSSLKEETAYWKELSLKYKQSFQEARDELVEFQEGSRELEAELEAQLVQAEQRNRDLQADNQRLKYEVEALKEKLEHQYAQSYKQVSVLEDDLSQTRAIKEQLHKYVRELEQANDDLERAKRATIVSLEDFEQRLNQAIERNAFLESELDEKESLLVSVQRLKDEARDLRQELAVRERQQEVTR
notes: Ndel1 residues 1-192; also called NT-Ndel1; ZZ-TEV-Halo-Ndel1(1-192)-His6; source: Sf9, purified (IgG Sepharose, TEV cleavage, SEC); not shown: ZZ, N-terminal, cleaved; HaloTag, N-terminal, kept; His6, C-terminal, kept
With B2, the “landing rate of processive DDB events (smTIRF) with 300 nM NT-Ndel1, against DDB alone” value in test [2] is around 2 fold reduction. Moreover, the “velocity of DDB (smTIRF) with 300 nM NT-Ndel1, against DDB alone” value in test [2] is around 2 fold reduction. Besides, the Kd with Lis1 (in solution) is around 1.2 nM; in test [1] it was 79 nM.

Consider B3, for which the “landing rate of DDB (smTIRF) with 50 nM Lis1 and 50 nM FL-Ndel1^PM together, against DDB alone” value in test [2] is around 2 fold reduction.

B4: Halo-Lis1 (natural protein, UniProt P43034 1-410, looked up)
chain: MVLSQRQRDELNRAIADYLRSNGYEEAYSVFKKEAELDVNEELDKKYAGLLEKKWTSVIRLQKKVMELESKLNEAKEEFTSGGPLGQKRDPKEWIPRPPEKYALSGHRSPVTRVIFHPVFSVMVSASEDATIKVWDYETGDFERTLKGHTDSVQDISFDHSGKLLASCSADMTIKLWDFQGFECIRTMHGHDHNVSSVAIMPNGDHIVSASRDKTIKMWEVQTGYCVKTFTGHREWVRMVRPNQDGTLIASCSNDQTVRVWVVATKECKAELREHEHVVECISWAPESSYSSISEATGSETKKSGKPGPFLLSGSRDKTIKMWDVSTGMCLMTLVGHDNWVRGVLFHSGGKFILSCADDKTLRVWDYKNKRCMKTLNAHEHFVTSLDFHKTAPYVVTGSVDQTVKVWECR
notes: Lis1; also called ZZ-TEV-Halo-Lis1; Lis1-conjugated beads; source: Sf9, purified (IgG Sepharose, TEV cleavage, SEC); not shown: ZZ, N-terminal, cleaved; HaloTag, N-terminal, kept
For B4, the Kd in test [3] came out at 101 nM.

B5: Full-length Ndel1 with N-terminal HaloTag and C-terminal 6X-His tag (natural protein, UniProt Q9GZM8 1-345, looked up)
chain: MDGEDIPDFSSLKEETAYWKELSLKYKQSFQEARDELVEFQEGSRELEAELEAQLVQAEQRNRDLQADNQRLKYEVEALKEKLEHQYAQSYKQVSVLEDDLSQTRAIKEQLHKYVRELEQANDDLERAKRATIVSLEDFEQRLNQAIERNAFLESELDEKESLLVSVQRLKDEARDLRQELAVRERQQEVTRKSAPSSPTLDCEKMDSAVQASLSLPATPVGKGTENTFPSPKAIPNGFGTSPLTPSARISALNIVGDLLRKVGALESKLAACRNFAKDQASRKSYISGNVNCGVLNGNGTKFSRSGHTSFFDKGAVNGFDPAPPPPGLGSSRPSSAPGMLPLSV
notes: Coupled to Magne HaloTag beads through the HaloTag; also called FL-Ndel1; Halo-Ndel1; source: Sf9 cells, purified (IgG Sepharose, TEV cleavage, size-exclusion chromatography); not shown: ZZ, N-terminal, cleaved; HaloTag, N-terminal, kept; His6, C-terminal, kept
For the molecule B5, binding in the test with Lis1 was put at a Kd of 4.6 nM.

B6: Full-length phosphomimetic Ndel1 (S198D; T219D; S231D; S242D) with N-terminal HaloTag and C-terminal 6X-His tag (natural protein, UniProt Q9GZM8 1-345, looked up)
chain: MDGEDIPDFSSLKEETAYWKELSLKYKQSFQEARDELVEFQEGSRELEAELEAQLVQAEQRNRDLQADNQRLKYEVEALKEKLEHQYAQSYKQVSVLEDDLSQTRAIKEQLHKYVRELEQANDDLERAKRATIVSLEDFEQRLNQAIERNAFLESELDEKESLLVSVQRLKDEARDLRQELAVRERQQEVTRKSAPSDPTLDCEKMDSAVQASLSLPADPVGKGTENTFPDPKAIPNGFGTDPLTPSARISALNIVGDLLRKVGALESKLAACRNFAKDQASRKSYISGNVNCGVLNGNGTKFSRSGHTSFFDKGAVNGFDPAPPPPGLGSSRPSSAPGMLPLSV
notes: Ndel1 with the four CDK1 sites changed to aspartic acid; also called FL-Ndel1PM; Halo-Ndel1PM; source: Sf9 cells, purified (IgG Sepharose, TEV cleavage, size-exclusion chromatography); not shown: ZZ, N-terminal, cleaved; HaloTag, N-terminal, kept; His6, C-terminal, kept
In the test with Lis1, B6 showed a Kd of 3.9 nM.

B7: Halo-tagged full-length Ndel1 with C-terminal 6X-His tag (natural protein, UniProt Q9GZM8 1-345, looked up)
chain: MDGEDIPDFSSLKEETAYWKELSLKYKQSFQEARDELVEFQEGSRELEAELEAQLVQAEQRNRDLQADNQRLKYEVEALKEKLEHQYAQSYKQVSVLEDDLSQTRAIKEQLHKYVRELEQANDDLERAKRATIVSLEDFEQRLNQAIERNAFLESELDEKESLLVSVQRLKDEARDLRQELAVRERQQEVTRKSAPSSPTLDCEKMDSAVQASLSLPATPVGKGTENTFPSPKAIPNGFGTSPLTPSARISALNIVGDLLRKVGALESKLAACRNFAKDQASRKSYISGNVNCGVLNGNGTKFSRSGHTSFFDKGAVNGFDPAPPPPGLGSSRPSSAPGMLPLSV
notes: Ndel1; 345 residues by the printed range 194-345; also called FL-Ndel1; ZZ-TEV-Halo-Ndel1-His6; source: Sf9, purified (IgG Sepharose, TEV cleavage, SEC); not shown: ZZ, N-terminal, cleaved; HaloTag, N-terminal, kept; His6, C-terminal, kept
Turning to B7, in test [2], the “landing rate of processive DDB events (smTIRF) with 300 nM FL-Ndel1, against DDB alone” value is around 5 fold reduction; the “processive landing rate of DDB (smTIRF) with 50 nM FL-Ndel1, against DDB alone” value stood at 1.7 fold reduction; the “velocity of DDB (smTIRF) with 300 nM FL-Ndel1, against DDB alone” value is around 2 fold reduction. In addition, the Kd in the test with Lis1 (in solution) was around 4 nM. For the same molecule, the Kd in test [1] was around 33 nM.

B8: Halo-tagged full-length Ndel1 with the four CDK1 sites mutated to aspartic acid (S198D; T219D; S231D; S242D), with C-terminal 6X-His tag (natural protein, UniProt Q9GZM8 1-345, looked up)
chain: MDGEDIPDFSSLKEETAYWKELSLKYKQSFQEARDELVEFQEGSRELEAELEAQLVQAEQRNRDLQADNQRLKYEVEALKEKLEHQYAQSYKQVSVLEDDLSQTRAIKEQLHKYVRELEQANDDLERAKRATIVSLEDFEQRLNQAIERNAFLESELDEKESLLVSVQRLKDEARDLRQELAVRERQQEVTRKSAPSDPTLDCEKMDSAVQASLSLPADPVGKGTENTFPDPKAIPNGFGTDPLTPSARISALNIVGDLLRKVGALESKLAACRNFAKDQASRKSYISGNVNCGVLNGNGTKFSRSGHTSFFDKGAVNGFDPAPPPPGLGSSRPSSAPGMLPLSV
notes: Ndel1 with four phosphomimetic mutations; also called FL-Ndel1^PM; Ndel1^PM; source: Sf9, purified (IgG Sepharose, TEV cleavage, SEC); not shown: ZZ, N-terminal, cleaved; HaloTag, N-terminal, kept; His6, C-terminal, kept
B8: the “processive landing rate of DDB (smTIRF) with 50 nM FL-Ndel1^PM, against DDB alone” value in test [2] amounted to 10 fold reduction. In the test with Lis1 (in solution), this molecule showed a Kd of around 4 nM.

For the origin of these results see PMC10248797, “Ndel1 disfavors dynein–dynactin–adaptor complex formation in two distinct ways” (The Journal of Biological Chemistry, 2023).
